Experimental data reported in patent US20070086956A1, “Method for accelerating the rate of mucociliary clearance” (BAYER AKTIENGESELLSCHAFT, priority 1998, published 2007).
Read-outs that look alike come from different tables or passages of the source.

Tests used:
[1] = target: T1, human plasma kallikrein (Homo sapiens, UniProt P03952); experiment: Anti-protease activity before and after nebulization; type: biochemical
T1 construct: purchased Sigma (St. Louis, Mo.)
Protocol: The aim of this study was to assess the anti-protease activity of Bikunin (1-170) described in Example 17 following nebulization. All studies were performed with Bikunin formulated in phosphate buffered saline, pH 7.4 (137 mM NaCl, 3 mM KCl, 3 mM KH2PO4, 8 mM Na2HPO4, 0.02 g/L Tween 80).
Raindrop® Medication Nebulizer: Bikunin was aerosolized at concentrations of 1 and 3 mg/mL. The nebulizer cup was filled with 2.5 mL of Bikunin solution. Aerosolisation was performed at 7.35 L/min or 35 psi.
Collison Nebulizer: Bikunin was aerosolised at a concentration of 4.7 mg/mL. The nebulizer cup was filled with 2.5 mL of Bikunin solution. Aerosolisation was performed at 35 psi.
Aerosolised Bikunin was collected using a twin impinger (6.4 um mean aerodynamic particle cut-off size at 60 L/min through the system). The impinger works on the principle of liquid impingement and divided the aerosol into a non-respirable fraction (>6.4 um collected in Stage 1) and a respirable fraction (<6.4 um collected in Stage 2).
Bikunin activity was measured in vitro by its inhibition of human plasma kallikrein.

[2] = tested on: guinea pig tracheal epithelial cells; experiment: Short circuit current (Isc) in cultured guinea pig tracheal epithelial (GPTE) cells; type: cell-based; details: 50 ug/mL; over a 30 minute period; FIG. 23
Protocol: The aim of this study was to investigate the effect of Bikunin (1-170) (See Example 17) on Isc on GPTE cells in vitro. GPTE cells were seeded onto 1.2 cm diameter, 0.4 um pore size Snapwell™ inserts (Costar UK). Cells were grown to confluence and mounted in modified Ussing chambers 2-4 days after placement on air-liquid interface. Inserts were immersed in Krebs buffer (KBR) solution and bubbled with 95% O2/5% CO2 warmed to 370 C.
After a 20 minute equilibration period, transepithelial potential difference was then clamped to 0 mV using a WPI EVC 4000 voltage clamp. Ag/AgCl electrodes were used to monitor Isc. Once a stable baseline was achieved (typically 20-30 mins), cells were treated with amiloride (30 uM). Once a response to amiloride was obtained, it was washed out with KBR solution. After return to baseline and equilibration, Bikunin (1-170) described in Example 17 (10 to 50 ug/mL) or PBS was added. 30 minutes following agent treatment amiloride (30 uM) was added.

[3] = tested on: guinea pig trachea; experiment: Tracheal potential difference in the guinea-pig; type: in vivo; details: 5 ug topical instillation; three hours of treatment; relative to vehicle; FIG. 15
Protocol: The aim of this study was to investigate the effect of the Kunitz serine protease inhibitor Bikunin, and the sodium channel blocker amiloride on guinea-pig tracheal potential difference 3 hours post treatment. These agents were delivered into the cephalad trachea by topical instillation. TPD was monitored 2 hours later for 60 minutes. The procedure used in this Example is described in Newton et al. in “Cilia, Mucus and Mucociliary Interactions,” Ed., Baum, G. L. et al., Marcel Dekker, New York, 1998; Newton et al., Ped. Pulm. S17, Abs. 364, 1998).
Aqueous formulations of Bikunin (1-170) (5 and 50 ug/mL (SEQ ID NO: 52)) (as described in Example 17 below) and amiloride (obtained from Sigma Chemicals, St. Louis, Mo., USA)(100 uM) were prepared, sterile filtered and endotoxin tested prior to use. […]
Two hours following agent treatment, guinea-pigs were anaesthetised for a second time with Hypnom® and Hypnovel® and immobilised in a supine position. Rectal temperature, measured with a thermistor probe was maintained at 37° C. by manual adjustment of a heat lamp. […] 20 min. following induction of i.m. anaesthesia the tracheal agar electrode was inserted into the cephalad trachea and tracheal potential difference was measured for 60 minutes. […]

T1 sequence (P03952 391-638 limits assumed): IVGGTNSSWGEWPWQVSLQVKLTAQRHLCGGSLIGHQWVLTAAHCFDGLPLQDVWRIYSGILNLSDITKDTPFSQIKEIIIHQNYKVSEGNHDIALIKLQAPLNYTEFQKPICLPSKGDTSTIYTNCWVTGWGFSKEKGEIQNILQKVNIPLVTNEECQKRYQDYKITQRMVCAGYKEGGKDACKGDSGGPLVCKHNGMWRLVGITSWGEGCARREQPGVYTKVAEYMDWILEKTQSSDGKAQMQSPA
T1 sequence (P03952 20-390 partner limits assumed): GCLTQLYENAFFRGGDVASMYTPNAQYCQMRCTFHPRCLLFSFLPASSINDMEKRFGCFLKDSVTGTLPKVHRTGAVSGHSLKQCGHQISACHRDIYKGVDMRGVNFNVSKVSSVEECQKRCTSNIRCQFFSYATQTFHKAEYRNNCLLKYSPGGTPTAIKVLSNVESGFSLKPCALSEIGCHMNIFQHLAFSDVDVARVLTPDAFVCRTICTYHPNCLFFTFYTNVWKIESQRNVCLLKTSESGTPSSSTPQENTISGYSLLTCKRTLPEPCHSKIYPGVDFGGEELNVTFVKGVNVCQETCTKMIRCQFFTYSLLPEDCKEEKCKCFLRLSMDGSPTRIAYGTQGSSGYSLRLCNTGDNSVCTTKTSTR

B1: CHO Bikunin (1-170): Glycosylated placental bikunin (1-170), SEQ ID NO: 52, expressed in Chinese hamster ovary cells (Example 17) (protein, listed as Homo sapiens)
chain: ADRERSIHDFCLVSKVVGRCRASMPRWWYNVTDGSCQLFVYGGCDGNSNNYLTKEECLKKCATVTENATGDLATSRNAADSSVPSAPRRQDSEDHSSDMFNYEEYCTANAVTGPCRASFPRWYFDVERNSCNNFIYGGCRGNKNSYRSEEACMLRCFRQQENPPLPLGSK
modifications: glycosylated, CHO-expressed
B1 was tested, and the Ki ([1]; Collison nebulizer, 4.7 mg/mL, read-out: Activity (Ki), post-nebulization) was 0.45 nM, the Ki ([1]; Collison nebulizer, 4.7 mg/mL, read-out: Activity (Ki), pre-nebulization) was 0.27 nM and the stability to aerosolization ([1]; Raindrop and Collison nebulizers) was “stable to aerosolization and retained its anti-protease activity”. The Ki ([1]; Raindrop nebulizer, 1 mg/mL, read-out: Activity (Ki), post-nebulization) was 0.76 nM, the Ki ([1]; Raindrop nebulizer, 1 mg/mL, read-out: Activity (Ki), pre-nebulization) was 0.47 nM and the Ki ([1]; Raindrop nebulizer, 3 mg/mL, read-out: Activity (Ki), post-nebulization) was 0.62 nM. For the same molecule, the Ki ([1]; Raindrop nebulizer, 3 mg/mL, read-out: Activity (Ki), pre-nebulization) was 0.52 nM, the sodium current [2] was “inhibited sodium current” and the tracheal potential difference [3] was “inhibited the potential difference”.
